In the supplement of paper PMC7125110:
± gives the standard error. For some assays here: This sample holds only a part of the variants without activity.

B1: glmS ribozyme (parent)
chain: AUAAAAGCGCCAGAACUACAGAAAUGUAGUUGACGAGGAGGAGGUUUAUCGAAUUUUCGGCGGAUGCCUCCAAA

How the values were obtained:
Conditions in all cases: with glucosamine-6-phosphate
glucosamine-6-phosphate [1] = variants of: B1; assay: kcat; higher = faster cleavage; RNA array
How it was run: (§1)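 The measurements used barcoded ribozyme variants on sequenced MiSeq chips, transcribed in situ by E. coli RNA polymerase and tracked at 37 °C with a hybridised Cy3 probe. Glucosamine-6-phosphate, 40 μM to 10 mM in HEPES/KCl/Mg(OAc)2 buffer, was flowed in while tiles were imaged over ~14 h. Baseline-normalised signals, also normalised to non-cleaving reference variants, gave per-tile medians that were fit to one- or two-exponential decays for kobs. kcat and KM resulted from weighted Michaelis–Menten fits across concentrations.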

glucosamine-6-phosphate [2] = variants of: B1; assay: KM; higher = weaker cofactor use; RNA array
How it was run: as §1

glucosamine-6-phosphate [3] = variants of: B1; assay: self-cleavage kobs at 640 uM GlcN6P; higher = faster cleavage; RNA array
How it was run: as §1

glucosamine-6-phosphate [4] = variants of: B1; assay: self-cleavage kobs at 2500 uM GlcN6P; higher = faster cleavage; RNA array
How it was run: as §1

glucosamine-6-phosphate [5] = variants of: B1; assay: self-cleavage kobs at 10000 uM GlcN6P; higher = faster cleavage; RNA array
How it was run: as §1

glucosamine-6-phosphate [6] = variants of: B1; assay: self-cleavage kobs at 40 uM GlcN6P; higher = faster cleavage; RNA array
How it was run: as §1

glucosamine-6-phosphate [7] = variants of: B1; assay: self-cleavage kobs at 160 uM GlcN6P; higher = faster cleavage; RNA array
How it was run: as §1

AUAAAAGCGCCAGAACUACAGAAAUGUAGUUGACGAGGAGGAGAAUUAUCGAAUUUUCGGCGGAUGCCUCCAAA [G44A U45A]
kcat (glucosamine-6-phosphate [1]): 0.00079 ± 0.0001 s⁻¹
KM (glucosamine-6-phosphate [2]): 3190 ± 750 µM
self-cleavage kobs at 640 uM GlcN6P (glucosamine-6-phosphate [3]): 0.000128 ± 4.2e-05 s⁻¹
self-cleavage kobs at 2500 uM GlcN6P (glucosamine-6-phosphate [4]): 0.000439 ± 0.00012 s⁻¹
self-cleavage kobs at 10000 uM GlcN6P (glucosamine-6-phosphate [5]): 0.000579 ± 0.0001 s⁻¹

AUAAAAGCGCCAGAGCUACAGAAAUGUAGUUGACGAGGAGGAGGUUUAUCGAAUGUUCGGCGGAUGCCUCCAAA [A15G U55G]
kcat (glucosamine-6-phosphate [1]): 0.0139 ± 0.0046 s⁻¹
KM (glucosamine-6-phosphate [2]): 683 ± 310 µM
self-cleavage kobs at 40 uM GlcN6P (glucosamine-6-phosphate [6]): 0.000914 ± 0.00013 s⁻¹
self-cleavage kobs at 160 uM GlcN6P (glucosamine-6-phosphate [7]): 0.00183 ± 0.00047 s⁻¹
self-cleavage kobs at 640 uM GlcN6P (glucosamine-6-phosphate [3]): 0.00997 ± 0.0026 s⁻¹
self-cleavage kobs at 2500 uM GlcN6P (glucosamine-6-phosphate [4]): 0.0187 ± 0.0059 s⁻¹
self-cleavage kobs at 10000 uM GlcN6P (glucosamine-6-phosphate [5]): 0.0118 ± 0.0027 s⁻¹

AUAAAAGCGCCAGAACUACAGAAAUGUAGUUUACGAGGAGGAGGUGUAUCGAAUUUUCGGCGGAUGCCUCCAAA [G32U U46G]
kcat (glucosamine-6-phosphate [1]): 0.000316 ± 0.00012 s⁻¹
self-cleavage kobs at 640 uM GlcN6P (glucosamine-6-phosphate [3]): 4.52e-05 ± 1.5e-05 s⁻¹
self-cleavage kobs at 2500 uM GlcN6P (glucosamine-6-phosphate [4]): 6.3e-05 ± 1.1e-05 s⁻¹
self-cleavage kobs at 10000 uM GlcN6P (glucosamine-6-phosphate [5]): 0.000169 ± 2e-05 s⁻¹

AUAAAAGCGCCAGAACUACAGAAAUGUAGUUGACGAGGAGGAGGUUUAUCGGAUUUUGGGCGGAUGCCUCCAAA [A52G C58G]
kcat (glucosamine-6-phosphate [1]): 1.7e-05 ± 1.7e-06 s⁻¹

AUAAAAGCGCCAGAACUACAGAAAUGUAGUUGACGAGGAGGAAGUUUAUCGAAUUUUCGGCGGAUGCGUCCAAA [G43A C68G]
kcat (glucosamine-6-phosphate [1]): 0.000174 ± 1.4e-05 s⁻¹
KM (glucosamine-6-phosphate [2]): 993 ± 160 µM
self-cleavage kobs at 640 uM GlcN6P (glucosamine-6-phosphate [3]): 6.69e-05 ± 1.2e-05 s⁻¹
self-cleavage kobs at 2500 uM GlcN6P (glucosamine-6-phosphate [4]): 0.000126 ± 2e-05 s⁻¹

AUAAAAGCGCCAGAUCUACAGAAAUGUAGUUGACGAGGAGGAGGUUUAUCGAAUUUCCGGCGGAUGCCUCCAAA [A15U U57C]
kcat (glucosamine-6-phosphate [1]): 8.55e-05 ± 5e-06 s⁻¹
KM (glucosamine-6-phosphate [2]): 4690 ± 680 µM
self-cleavage kobs at 160 uM GlcN6P (glucosamine-6-phosphate [7]): < 1e-05 s⁻¹
self-cleavage kobs at 2500 uM GlcN6P (glucosamine-6-phosphate [4]): 2.97e-05 ± 8.8e-06 s⁻¹
self-cleavage kobs at 10000 uM GlcN6P (glucosamine-6-phosphate [5]): 5.82e-05 ± 8.1e-06 s⁻¹

AUAAAAGCGCCAGAACUACAGAAAUGUAGUUGACGAGGAGGAGGUUUAUCGAAUUUUCGGCGGAAGUCUCCAAA [U65A C67U]
kcat (glucosamine-6-phosphate [1]): 0.00212 ± 0.00035 s⁻¹
KM (glucosamine-6-phosphate [2]): 1260 ± 320 µM
self-cleavage kobs at 40 uM GlcN6P (glucosamine-6-phosphate [6]): 7.1e-05 ± 8.1e-06 s⁻¹
self-cleavage kobs at 160 uM GlcN6P (glucosamine-6-phosphate [7]): 0.00022 ± 2.8e-05 s⁻¹
self-cleavage kobs at 640 uM GlcN6P (glucosamine-6-phosphate [3]): 0.000793 ± 8.5e-05 s⁻¹
self-cleavage kobs at 2500 uM GlcN6P (glucosamine-6-phosphate [4]): 0.00117 ± 0.00013 s⁻¹
self-cleavage kobs at 10000 uM GlcN6P (glucosamine-6-phosphate [5]): 0.00225 ± 0.00023 s⁻¹

AUAAAAGCGCCAGAACUACAGAAAUGUAGUUGACGAGGAGGAGGUUUAUCGAAUUUUCAGCGGAUGCCUCGAAA [G59A C71G]
kcat (glucosamine-6-phosphate [1]): < 1e-05 s⁻¹
self-cleavage kobs at 40 uM GlcN6P (glucosamine-6-phosphate [6]): < 1e-05 s⁻¹

AUAAAAGCGCCGGAACUACAGAAAUGUAGUUGACGAGGAGGGGGUUUAUCGAAUUUUCGGCGGAUGCCUCCAAA [A12G A42G]
kcat (glucosamine-6-phosphate [1]): 0.00162 ± 0.0003 s⁻¹
KM (glucosamine-6-phosphate [2]): 4880 ± 1300 µM
self-cleavage kobs at 160 uM GlcN6P (glucosamine-6-phosphate [7]): 3.49e-05 ± 1.3e-05 s⁻¹
self-cleavage kobs at 640 uM GlcN6P (glucosamine-6-phosphate [3]): 0.000189 ± 1.9e-05 s⁻¹
self-cleavage kobs at 2500 uM GlcN6P (glucosamine-6-phosphate [4]): 0.00064 ± 7.7e-05 s⁻¹
self-cleavage kobs at 10000 uM GlcN6P (glucosamine-6-phosphate [5]): 0.00103 ± 0.00012 s⁻¹

AUAAAAGCGCCAGAACUACAGAAAUGUAGUUGACGAGGAUGAGGUUUAUCGAAUUUUCGGCGGAUGCCUACAAA [G40U C70A]
kcat (glucosamine-6-phosphate [1]): 0.000457 ± 7.9e-05 s⁻¹
KM (glucosamine-6-phosphate [2]): 1360 ± 460 µM
self-cleavage kobs at 160 uM GlcN6P (glucosamine-6-phosphate [7]): 3.45e-05 ± 1.4e-05 s⁻¹
self-cleavage kobs at 640 uM GlcN6P (glucosamine-6-phosphate [3]): 0.000149 ± 1.8e-05 s⁻¹
self-cleavage kobs at 2500 uM GlcN6P (glucosamine-6-phosphate [4]): 0.000434 ± 7.3e-05 s⁻¹
self-cleavage kobs at 10000 uM GlcN6P (glucosamine-6-phosphate [5]): 0.000372 ± 4.6e-05 s⁻¹

AUAAAAGCGCCAGAACUACAGAAAUGUAGUUGACGAGGAGGGGGUUUAUCGAAUUCUCGGCGGAUGCCUCCAAA [A42G U56C]
kcat (glucosamine-6-phosphate [1]): 0.00693 ± 0.0014 s⁻¹
KM (glucosamine-6-phosphate [2]): 3180 ± 860 µM
self-cleavage kobs at 40 uM GlcN6P (glucosamine-6-phosphate [6]): 7.76e-05 ± 1.5e-05 s⁻¹
self-cleavage kobs at 160 uM GlcN6P (glucosamine-6-phosphate [7]): 0.000469 ± 8.9e-05 s⁻¹
self-cleavage kobs at 640 uM GlcN6P (glucosamine-6-phosphate [3]): 0.00106 ± 0.00018 s⁻¹
self-cleavage kobs at 2500 uM GlcN6P (glucosamine-6-phosphate [4]): 0.00317 ± 0.0005 s⁻¹
self-cleavage kobs at 10000 uM GlcN6P (glucosamine-6-phosphate [5]): 0.00522 ± 0.0008 s⁻¹

AUAAAAGCGCCAGAACUACAGAAAUGUAGCUGUCGAGGAGGAGGUUUAUCGAAUUUUCGGCGGAUGCCUCCAAA [U30C A33U]
kcat (glucosamine-6-phosphate [1]): 1.74e-05 ± 7.2e-07 s⁻¹
KM (glucosamine-6-phosphate [2]): 944 ± 280 µM

AUAAAAGCGCCACAACUACAGAAAUGUAGUUGACGAGGAGGAGGUUUAUCGAAUGUUCGGCGGAUGCCUCCAAA [G13C U55G]
kcat (glucosamine-6-phosphate [1]): 0.000125 ± 2.7e-05 s⁻¹
self-cleavage kobs at 2500 uM GlcN6P (glucosamine-6-phosphate [4]): 6.8e-05 ± 9.4e-06 s⁻¹
self-cleavage kobs at 10000 uM GlcN6P (glucosamine-6-phosphate [5]): 9.6e-05 ± 1.2e-05 s⁻¹

AUAAAAGCGCCAGAACUACAGAAAUGUAGUUGACGAGGAGGAGGUUUAUCGAAUUUUCGGCGAAUGCCUCGAAA [G63A C71G]
kcat (glucosamine-6-phosphate [1]): 2.96e-05 ± 9.4e-06 s⁻¹
self-cleavage kobs at 40 uM GlcN6P (glucosamine-6-phosphate [6]): < 1e-05 s⁻¹

AUAAAAGCGCCAGAACUACAGAAAUGUAGUUGACGAGGAGGAGGUUCAUCGAAUUUUCGGCGGAUGCUUCCAAA [U47C C68U]
kcat (glucosamine-6-phosphate [1]): 0.00114 ± 0.0002 s⁻¹
KM (glucosamine-6-phosphate [2]): 1650 ± 540 µM
self-cleavage kobs at 40 uM GlcN6P (glucosamine-6-phosphate [6]): 3.33e-05 ± 1.2e-05 s⁻¹
self-cleavage kobs at 160 uM GlcN6P (glucosamine-6-phosphate [7]): 0.000149 ± 3.6e-05 s⁻¹
self-cleavage kobs at 640 uM GlcN6P (glucosamine-6-phosphate [3]): 0.000286 ± 4.6e-05 s⁻¹
self-cleavage kobs at 2500 uM GlcN6P (glucosamine-6-phosphate [4]): 0.000609 ± 0.0001 s⁻¹
self-cleavage kobs at 10000 uM GlcN6P (glucosamine-6-phosphate [5]): 0.00107 ± 0.00015 s⁻¹

AUAAAAGCGCCAGAACUACAGAAAUGUAGUUGACGAGGAGGAGGUUUAUCGAAUUUACGGGCGGAUGCCCCAAA [U57A C61G G62C A64G U65A G66U C67G U69C]
kcat (glucosamine-6-phosphate [1]): 3.85e-05 ± 9.7e-06 s⁻¹
self-cleavage kobs at 2500 uM GlcN6P (glucosamine-6-phosphate [4]): 4.83e-05 ± 2e-05 s⁻¹

AUAAAAGCGCCAGAACUACAGAAAUGUAUUUGACGAGGAGGAGGUUUAUCGAAUUUUUGGCGGAUGCCUCCAAA [G29U C58U]
kcat (glucosamine-6-phosphate [1]): 0.000107 ± 1.1e-05 s⁻¹
KM (glucosamine-6-phosphate [2]): 3710 ± 980 µM
self-cleavage kobs at 2500 uM GlcN6P (glucosamine-6-phosphate [4]): 4.57e-05 ± 9.1e-06 s⁻¹
self-cleavage kobs at 10000 uM GlcN6P (glucosamine-6-phosphate [5]): 7.71e-05 ± 8.8e-06 s⁻¹
